Reference: patent US20190153112A1 (IMMUTEP S A S, published 2019)

Assays:
[1] = target: human LAG-3 protein (Lymphocyte activation gene-3) on the cell surface (human) (UniProt P18627); assay: flow cytometry on LAG-3-transfected CHO cells; antibody 6 ng/ml
[2] = target: IMP321 (recombinant soluble human LAG-3Ig fusion protein) (human) (UniProt P18627); assay: FACS, LAG-3Ig-Alexa 488 (1 µg/ml) pre-incubated with antibody 11000 ng/ml, then bound to Raji (MHC class II+) cells
[3] = target: IMP321 (recombinant soluble human LAG-3Ig fusion protein) (human) (UniProt P18627); assay: cell-based or functional assay
[4] = target: human LAG-3 protein (Lymphocyte activation gene-3) on the cell surface (human) (UniProt P18627); assay: flow cytometry on CD4+ cells of SEB-stimulated PBMCs (Donor 1); antibody 2326 ng/ml
[5] = target: human LAG-3 protein (Lymphocyte activation gene-3) on the cell surface (human) (UniProt P18627); assay: flow cytometry on LAG-3-transfected CHO cells; antibody 20 ng/ml
[6] = target: human LAG-3 protein (Lymphocyte activation gene-3) on the cell surface (human) (UniProt P18627); assay: flow cytometry on CD4+ cells of SEB-stimulated PBMCs (Donor 1); antibody 126 ng/ml
[7] = target: human LAG-3 protein (Lymphocyte activation gene-3) on the cell surface (human) (UniProt P18627); assay: flow cytometry on LAG-3-expressing CHO cells, mean of four independent experiments
[8] = target: human LAG-3 protein (Lymphocyte activation gene-3) on the cell surface (human) (UniProt P18627); assay: flow cytometry on CD4+ cells of SEB-stimulated PBMCs (Donor 1); antibody 10000 ng/ml
[9] = target: human LAG-3 protein (Lymphocyte activation gene-3) on the cell surface (human) (UniProt P18627); assay: flow cytometry on CD4+ cells of SEB-stimulated PBMCs (Donor 1); antibody 1.6 ng/ml
[10] = target: IMP321 (recombinant soluble human LAG-3Ig fusion protein) (human) (UniProt P18627); assay: Biacore, 17B4 antibody on the chip and LAG-3Ig in the running buffer
[11] = target: human LAG-3 protein (Lymphocyte activation gene-3) on the cell surface (human) (UniProt P18627); assay: flow cytometry on CD8+ cells of SEB-stimulated PBMCs (Donor 1); antibody 2326 ng/ml
[12] = target: IMP321 (recombinant soluble human LAG-3Ig fusion protein) (human) (UniProt P18627); assay: FACS, LAG-3Ig-Alexa 488 (1 µg/ml) pre-incubated with antibody 27 ng/ml, then bound to Raji (MHC class II+) cells
[13] = target: human LAG-3 protein (Lymphocyte activation gene-3) on the cell surface (human) (UniProt P18627); assay: flow cytometry on CD4+ cells of SEB-stimulated PBMCs (Donor 1); antibody 541 ng/ml
[14] = target: human LAG-3 protein (Lymphocyte activation gene-3) on the cell surface (human) (UniProt P18627); assay: flow cytometry on LAG-3-transfected CHO cells; antibody 10000 ng/ml
[15] = target: human LAG-3 protein (Lymphocyte activation gene-3) on the cell surface (human) (UniProt P18627); assay: flow cytometry on CD8+ cells of SEB-stimulated PBMCs, mean of three donors

Chain of IMP321 (recombinant soluble human LAG-3Ig fusion protein) (human) (P18627 23-450): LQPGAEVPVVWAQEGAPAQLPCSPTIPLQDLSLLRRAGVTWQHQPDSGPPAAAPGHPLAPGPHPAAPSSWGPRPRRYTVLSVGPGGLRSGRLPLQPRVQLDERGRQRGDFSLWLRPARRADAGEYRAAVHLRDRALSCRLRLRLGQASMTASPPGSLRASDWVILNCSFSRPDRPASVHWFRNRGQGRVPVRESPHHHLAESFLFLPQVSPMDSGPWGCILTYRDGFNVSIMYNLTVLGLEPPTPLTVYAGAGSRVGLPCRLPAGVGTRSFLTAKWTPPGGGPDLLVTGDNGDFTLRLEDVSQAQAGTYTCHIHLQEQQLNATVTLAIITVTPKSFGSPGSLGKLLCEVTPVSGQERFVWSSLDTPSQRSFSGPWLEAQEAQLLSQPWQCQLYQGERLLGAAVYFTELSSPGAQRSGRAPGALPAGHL
Chain of human LAG-3 protein (Lymphocyte activation gene-3) on the cell surface (human) (P18627 other isoform, or with tags, fused parts or gaps): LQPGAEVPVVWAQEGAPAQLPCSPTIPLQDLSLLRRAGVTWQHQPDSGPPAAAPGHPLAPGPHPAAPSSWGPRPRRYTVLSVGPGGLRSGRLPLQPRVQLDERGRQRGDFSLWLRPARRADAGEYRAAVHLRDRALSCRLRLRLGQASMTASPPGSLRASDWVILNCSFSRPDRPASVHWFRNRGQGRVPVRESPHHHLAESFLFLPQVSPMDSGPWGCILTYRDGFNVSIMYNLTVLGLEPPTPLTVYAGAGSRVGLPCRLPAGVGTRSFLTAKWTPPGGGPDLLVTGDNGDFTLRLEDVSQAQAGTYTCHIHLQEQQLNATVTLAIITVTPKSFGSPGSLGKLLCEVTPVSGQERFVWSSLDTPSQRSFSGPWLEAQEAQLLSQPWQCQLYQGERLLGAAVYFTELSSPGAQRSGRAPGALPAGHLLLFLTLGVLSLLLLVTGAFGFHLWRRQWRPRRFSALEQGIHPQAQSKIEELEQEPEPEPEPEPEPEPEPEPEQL

antagonistic anti-LAG-3 mouse monoclonal antibody 17B4
MFI [1]: 549 MFI
MFI of sLAG-3Ig-Alexa 488 [2]: -11 MFI
[CCL4] in THP-1 monocytic cells supernatant; IMP321 20 ng/ml pre-incubated with antibody 2 ng/ml [3]: 1960 pg/mL
[CCL4] in THP-1 monocytic cells supernatant; IMP321 20 ng/ml pre-incubated with antibody 20 ng/ml [3]: 1550 pg/mL
[CCL4] in THP-1 monocytic cells supernatant; IMP321 20 ng/ml pre-incubated with antibody 200 ng/ml [3]: 860 pg/mL
[CCL4] in THP-1 monocytic cells supernatant; IMP321 20 ng/ml pre-incubated with antibody 2000 ng/ml [3]: 947 pg/mL
[CCL4] in THP-1 monocytic cells supernatant; IMP321 20 ng/ml pre-incubated with antibody 20000 ng/ml [3]: 860 pg/mL
[CCL4] in THP-1 monocytic cells supernatant; IMP321 20 ng/ml, antibody 0 ng/ml (no-antibody value) [3]: 2110 pg/mL
MFI [4]: 1940 MFI
MFI [5]: 1380 MFI
MFI [6]: 1240 MFI
EC50 [7]: 0.7 nM
MFI [8]: 1600 MFI
MFI [9]: 192 MFI
Ka [10]: 2.71e+08 M⁻¹
Kd [10]: 3.69 nM
koff [10]: 0.000818 s⁻¹
kon [10]: 222000 M⁻¹ s⁻¹
MFI [11]: 4830 MFI
MFI of sLAG-3Ig-Alexa 488 [12]: 260 MFI
MFI [13]: 1750 MFI
MFI [14]: 6090 MFI
EC50 [15]: 1 nM
